B1: IL-4: IL-4, used as a stimulus for Daudi or Ramos B-cells (protein, UniProt P05112 25-153, looked up)
Interleukin-4: HKCDITLQEIIKTLNSLTEQKTLCTELTVTDIFAASKNTTEKETFCRAATVLRQFYSHHEKDTRCLGATAQQFHRHKQLIRFLKRLDRNLWGLAGLNSCPVKEANQSTLENFLERLKTIMREKYSKCSS

Legend:
Format in all cases: cell-based
Jurkat cells = experiment: Anti-phosphotyrosine capture assay of tyrosine kinase activity after SDF-1α stimulation for various times; details: 37° C., 100 nM SDF-1α, various time intervals, FIG. 2
Procedure: (§1) 96-well polystyrene plates were coated with an anti-phosphotyrosine antibody, pY99 (Santa Cruz Biotech, Inc., Santa Cruz, Calif.), by adding 200 μl of an antibody solution in Tris buffered saline (TBS) pH 8.0 at a concentration of 2.5 μg/ml. The plates were incubated for three hours at room temperature. The plates were then rinsed and 300 μl of blocking solution, sold under the trademark, SUIPERBLOCK® (Pierce Chemical, Rockford, Ill.) was added and the plates were incubated for two hours. At this point, the plates may be stored at 4° C. for up to two weeks. […]
To assay the cell lysates for kinase activity, the plate was thawed at 37° C., and 100 μl of tris buffered saline with 0.1% Tween 20 was added to each well. […] Relative phosphorylated protein levels were detected by adding 100 μl of a 0.2 μg/ml solution of europium-chelate labeled anti-phosphotyrosine antibody in tris buffered saline (pH 8.0) to each well and allowing the plate to incubate for one hour with shaking. […] Enhancement Solution for measuring Eu^3+ (E. G. & G. Wallac, Turku, FI) was added and the amount of labeled antibody bound was measured using a time-resolved fluorescence plate reader, for example, a Wallac 1420, or Victor MLC (Wallac Oy, Turku, FI). […]

Ramos B cells = experiment: Anti-phosphotyrosine capture assay (time-resolved fluorescence) of tyrosine phosphorylation in stimulated B-cells; details: ligand 100 ng/ml, 15 minutes, FIG. 1
Procedure: as §1
(§2) To assay the cell lysates for kinase activity, the plate was thawed at 37° C., and 100 μl of tris buffered saline with 0.1% Tween 20 was added to each well. […] Relative phosphorylated protein levels were detected by adding 100 μl of a 0.2 μg/ml solution of europium-chelate labeled anti-phosphotyrosine antibody in tris buffered saline (pH 8.0) to each well and allowing the plate to incubate for one hour with shaking. […] Enhancement Solution for measuring Eu^3+ (E. G. & G. Wallac, Turku, FI) was added and the amount of labeled antibody bound was measured using a time-resolved fluorescence plate reader, for example, a Wallac 1420, or Victor MLC (Wallac Oy, Turku, FI).

Daudi B cells = experiment: as above; details: ligand 100 ng/ml, 15 minutes, FIG. 1
Procedure: as §1, §2

| Molecule | tyrosine kinase activity (fluorescence) as time increases (Jurkat cells) | changes in tyrosine phosphorylation on stimulation (Ramos B cells) | changes in tyrosine phosphorylation on stimulation (Daudi B cells) |
| --- | --- | --- | --- |
| SDF-1α | decrease in kinase activity |  |  |
| B1 |  | not significantly | not significantly |

From patent US6806056B2, “Fluorescent capture assay for kinase activity employing an anti-phosphotyrosine antibody as both the capture agent and detecting agent” (Pharmacopeia Drug Discovery, Inc., priority 1999, dated 2004)
